From patent US20240360208A1 (Hoffmann-La Roche, published 2024)

T1: human CCL8 (MCP2) - wild type (wt) (human, UniProt P80075 24-99)
T1 construct: also called huCCL8
T1 sequence: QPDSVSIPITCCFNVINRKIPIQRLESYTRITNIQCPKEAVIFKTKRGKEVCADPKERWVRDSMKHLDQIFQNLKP


Legend:
[1] = target: T2, human CCL2 (MCP1) - wild type (wt) (human, UniProt P13500 24-99); assay: cell-based or functional assay
[2] = target: T3, human CCL2 (MCP1) - P8A variant (human, UniProt P13500 24-99); assay: SPR T200, 37 C, antibody captured, 1:1 model
T3 construct: In-house point mutant that cannot dimerise; also called monomeric human CCL2; monomeric CCL2
Procedure: (§1) Antibody clone supernatants were diluted 1:2 in system buffer and were captured for 1 min at 5 μl/min. […] Analyte kinetics were performed at 30 μl/min. As analyte in solution wt human CCL2 or monomeric CCL2 P8A variant CCL2 were used. Analytes were injected at 90 nM highest concentration. The analyte contact time was 3 min and the dissociation time was 10 min. The Biaevaluation software V.3.0 was used according to the instructions of the manufacturer GEHC. A 1:1 binding model with RMAX local was applied to apparently estimate kinetic rates.

[3] = target: T2, human CCL2 (MCP1) - wild type (wt); assay: SPR T200, 37 C, antibody captured, 1:1 model
Procedure: as §1

[4] = target: T4, human CCL7 (MCP3) - wild type (wt) (human, UniProt P80098 24-99); assay: SPR (Biacore T200), 25 °C, ACES pH 7.4; antibody captured on anti-human IgG (Fc), chemokine injected at 5 nM and 20 nM
T4 construct: Bought from R&D Systems for the homolog assay
Procedure: (§2) Biacore assay method: The binding of anti-CCL2 antibodies to the CCL homologs e.g. CCL2 (MCP-1), CCL8 (MCP-2), CCL7 (MCP-3), and CCL13 (MCP-4) were assessed at 25° C. using Biacore T200 instrument (GE Healthcare). Mouse anti-human IgG (Fc) (GE Healthcare) was immobilized on each flow cells of a CM4 sensor chip using amine coupling kit (GE Healthcare) according to the recommended settings by the manufacturer. Antibodies and analytes were diluted into ACES pH 7.4 buffer (20 mM ACES, 150 mM NaCl, 1 mg/ml BSA, 0.05% Tween 20, 0.005% NaN3). Antibodies were captured onto the anti-Fc sensor surfaces, then recombinant human CCL homologs proteins was injected over the flow cell at 5 nM and 20 nM. […] Sensor surface was regenerated each cycle with 3M MgCl2. Binding sensorgram was processed using Biacore T200 Evaluation software, version 2.0 (GE Healthcare).

[5] = target: T1, human CCL8 (MCP2) - wild type (wt); assay: as above
Procedure: as §2

[6] = target: T2, human CCL2 (MCP1) - wild type (wt); assay: SPR T200, 25 C, anti-human Fc capture, 1:1 model, pH 7.4
Procedure: (§3) An antibody capture system was established. 13000 MAb<h-Fc-pan>M-R10Z8E9-IgG (Roche) were immobilized at 25° C. at 18 μg/ml in 10 mM sodium acetate buffer pH 5.0, by EDC/NHS coupling as described by the manufacturer. The capture system was regenerated by an injection at 20 μl/min with HBS buffer (100 mM HEPES pH 7.4, 1.5 M NaCl, 0.05% (w/v) Tween 20), followed by a 1 min 15 see injection with 10 mM NaOH and two 10 mM glycine buffer pH 2.5 injections for 1 min. Antibodies were captured were injected for 30 see at 10 μl/min at 80 nM concentration diluted in the respective system buffer. […] The analyte contact time was 3 min and the dissociation time was 10 min. Analyte kinetics were performed at 50 μl/min.
(§4) The Biaevaluation software V.3.0 was used according to the instructions of the manufacturer GEHC. A 1:1 binding model with RMAX local was applied to determine kinetic rates.

[7] = target: T2, human CCL2 (MCP1) - wild type (wt); assay: SPR T200, 25 C, anti-human Fc capture, 1:1 model, pH 7.1
Procedure: as §3, §4

[8] = target: T2, human CCL2 (MCP1) - wild type (wt); assay: SPR T200, 25 C, anti-human Fc capture, 1:1 model, pH 5.5
Procedure: as §3, §4

[9] = target: T2, human CCL2 (MCP1) - wild type (wt); assay: SPR, C1 chip, anti-human Fc capture, 25 C, pH 7.4, Langmuir 1:1
Procedure: The sample and system buffer was PBS-T (10 mM phosphate buffered saline including 0.05% Tween20) pH 7.4. The flow cell was set to 25° C.—and the sample block set to 12° C.—and primed with running buffer twice. The bispecific antibody was captured by injecting a 2 μg/ml solution for 60 see at a flow rate of 10 μl/min. Association was measured by injection of human CCL2 (wt) in various concentrations in solution for 150 see at a flow rate of 30 μl/min starting with 30 nM in 1:10 dilutions. The dissociation phase was monitored for up to 1200 sec and triggered by switching from the sample solution to running buffer. […] Bulk refractive index differences were corrected by subtracting the response obtained from a goat anti human IgG Fc surface. Blank injections are also subtracted (=double referencing). For calculation of kinetic parameters, the Langmuir 1:1 model was used.

[10] = target: T2, human CCL2 (MCP1) - wild type (wt); assay: SPR T200, 25 C, anti-human Fc capture, 1:1 model, pH 6.3
[11] = target: T2, human CCL2 (MCP1) - wild type (wt); assay: SPR T200, 25 C, anti-human Fc capture, 1:1 model, pH 7.9
Procedure: as §3, §4

[12] = target: T2, human CCL2 (MCP1) - wild type (wt); assay: SPR T200, 25 C, anti-human Fc capture, 1:1 model, pH 8.3
Procedure: as §3, §4

[13] = target: T2, human CCL2 (MCP1) - wild type (wt); assay: SPR T200, 25 C, anti-human Fc capture, 1:1 model, pH 6.7
[14] = target: T2, human CCL2 (MCP1) - wild type (wt); assay: SPR T200, 25 C, anti-human Fc capture, 1:1 model, pH 5.9
Procedure: as §3, §4

[15] = target: T3, human CCL2 (MCP1) - P8A variant; assay: number printed beside the row of sensorgrams; the assay and the CCL2 form behind the number are not stated on the sheet (the sensorgrams are on monomeric CCL2)

Binder	THP1 chemotaxis [fold change compared to IgG control] [1]	Kd [2]	T1/2 [2]	Kd [3]	T1/2 [3]	binding result [4]	binding result [5]	Affinity relative to parent CNTO888 [15]	other results
1A5 (antibody, IgG1, V domains shown, also called CCL2-0009) VH: QEQLVESGGDLVKPEGSLTLTCTASGFSFSTSYWMCWVRQAPGKGLELIACISSSIGVTYYASWAEGRFTISKTSSTTVTLQMTSLTVADTATYFCARTTDDNWNVGFNLWGPGTLVTVSS VL: AYDMTQTPASVEVGVGGTVTIKCQASQSIGNRYLSWYQQKPGQPPKLLIYGTSTLASGVSSRFKGSGSGTQFTLTISGVESADSATYYCQQGATISYLDNAFGGGTEVVVK	3.6 fold	0.046 nM	137 min	0.024 nM	160 min	binds	no binding (tested: 20 nM)	–	–
1G9 (antibody, IgG1, V domains shown, also called CCL2-0010) VH: QSLEESGGDLVKPGASLTLTCKASGIDFSLYSYMCWVRQAPGKGLEWIACVDAGASGSTYYASWAKGRFTISKTSSTTVTLQMTSLTAADTATYFCARGILYYTWPYPAGAIDAFDSWGPGTLVTVSS VL: AYDMTQTPASVSEPVGGTVTIKCQASESISNYLSWYQQKPGQPPKLLIYKASTLASGVPSRFKGSGSGTEYTVTISGVQSDDAATYYCQQSYSSSNVFNTFGGGTEVVVK	0.9 fold	0.051 nM	218 min	0.062 nM	177 min	no binding (tested: 20 nM)	binds	–	–
ABN912 (antibody, IgG1, V domains shown, IgG1 with kappa light chain; also called AB912; CCL2-0003) VH: EVQLVQSGGGLVQPGGSLRLSCAASGFTFSHYWMSWVRQAPGKGLEWLANIEQDGSEKYYVDSVKGRFTISRDNAKNSLYLQMNSLRAEDTAVYFCARDLEGLHGDGYFDLWGRGTLVTVSS VL: AIQLTQSPSSLSASVGDRVILTCRASQGVSSALAWYQQKPGKAPKLLIYDASSLESGVPSRFSGSGSGPDFTLTISSLQPEDFATYFCQQFNSYPLTFGGGTKVEIK	6.5 fold	0.046 nM	25 min	0.036 nM	33 min	–	–	–	Kd [6]: 0.01 nM; t 1/2-diss. [6]: 33 min; Kd [7]: 0.02 nM; t 1/2-diss. [7]: 20 min; Kd [8]: 2000 nM; t 1/2-diss. [8]: 0.03 min; t 1/2* [9]: 27 min; Kd [10]: 1 nM; t 1/2-diss. [10]: 3 min; Kd [11]: 0.004 nM; t 1/2-diss. [11]: 25 min; Kd [12]: 0.004 nM; t 1/2-diss. [12]: 35 min; Kd [13]: 0.2 nM; t 1/2-diss. [13]: 8 min; Kd [14]: 13 nM; t 1/2-diss. [14]: 1 min
CNTO888 (antibody, V domains shown, IgG1 wild type with kappa light chain; also called CCL2-0004; CNTO888-IgG1) VH: QVQLVQSGAEVKKPGSSVKVSCKASGGTFSSYGISWVRQAPGQGLEWMGGIIPIFGTANYAQKFQGRVTITADESTSTAYMELSSLRSEDTAVYYCARYDGIYGELDFWGQGTLVTVSS VL: not shown	–	–	–	–	–	no binding (tested: 20 nM)	–	–	–
CNTO888H0635/CNTO888L0616 (antibody, V domains shown, also called modified CNTO888 variant (VH H0635 / VL L0616)) VH: QVQLVQSGAEVKKPGSSVKVSCKASGGTFSHYGISWVRQAPGQGLEWMGGHIHIFGTANYAQKFQGRVTITADESTSTAYMELSSLRSEDTAVYYCARYDAHYGELDFWGQGTLVTVSS VL: EIVLTQSPATLSLSPGERATLSCRASQHVSDAYLAWYQQKPGQAPRLLIYDASDRAEGVPARFSGSGSGTDFTLTISSLEPEDFAVYYCHQYIHLHSFTFGQGTKVEIK	–	–	–	–	–	–	–	3 X	–
CNTO888H0695/CNTO888L0616 (antibody, V domains shown, also called modified CNTO888 variant (VH H0695 / VL L0616)) VH: QVQLVQSGAEVKKPGSSVKVSCKASGGTFSHYGISWVRQAPGQGLEWMGGVIPIFHTANYAQKFQGRVTITADESTSTAYMELSSLRSEDTAVYYCARYDAHYGELDFWGQGTLVTVSS VL: EIVLTQSPATLSLSPGERATLSCRASQHVSDAYLAWYQQKPGQAPRLLIYDASDRAEGVPARFSGSGSGTDFTLTISSLEPEDFAVYYCHQYIHLHSFTFGQGTKVEIK	–	–	–	–	–	–	–	1 X	–
